The record followed here is patent publication US20110124012A1.

For assay [1], the target named is human N-terminal-pro B-type natriuretic peptide (human). The experiment in a line: two-step sandwich chemiluminescent immunoassay ([..]); capture 15F11 on microparticles, acridinium-labeled 15C4; NT-proBNP at 43.8 pM.
Assay [2] shares this target. The assay is described as follows: two-step sandwich chemiluminescent immunoassay ([..]); capture 15F11 on microparticles, acridinium-labeled 15C4; NT-proBNP at 86.6 pM.
For assay [3], the target named is human B-type natriuretic peptide (human). The assay is described as follows: two-step sandwich chemiluminescent immunoassay ([..]); capture 15F11 on microparticles, acridinium-labeled 15C4; BNP at 0 pM (blank).
For assay [4] the target is unchanged. The assay is described as follows: two-step sandwich chemiluminescent immunoassay ([..]); capture 8.1 on microparticles, acridinium-labeled 15C4; BNP at 577.4 pM.
Assay [5] addresses human N-terminal-pro B-type natriuretic peptide (human). The experiment in a line: two-step sandwich chemiluminescent immunoassay ([..]); capture 15F11 on microparticles, acridinium-labeled 15C4; NT-proBNP at 577.4 pM.
In assay [6] the target is human pro B-type natriuretic peptide (human). The experiment in a line: two-step sandwich chemiluminescent immunoassay ([..]); capture 8.1 on microparticles, acridinium-labeled 15C4; proBNP at 0 pM (blank).
The target is the same in assay [7]. The assay is described as follows: two-step sandwich chemiluminescent immunoassay ([..]); capture 8.1 on microparticles, acridinium-labeled 15C4; proBNP at 288.7 pM.
Assay [8] concerns the target human B-type natriuretic peptide (human). The experiment in a line: two-step sandwich chemiluminescent immunoassay ([..]); capture 15F11 on microparticles, acridinium-labeled 15C4; BNP at 288.7 pM.
For assay [9] the target is unchanged. The assay is described as follows: two-step sandwich chemiluminescent immunoassay ([..]); capture 15F11 on microparticles, acridinium-labeled 15C4; BNP at 577.4 pM.
The target of assay [10] is human N-terminal-pro B-type natriuretic peptide (human). The experiment in a line: two-step sandwich chemiluminescent immunoassay ([..]); capture 15F11 on microparticles, acridinium-labeled 15C4; NT-proBNP at 0 pM (blank).
The target in assay [11] is human B-type natriuretic peptide (human). The assay is described as follows: two-step sandwich chemiluminescent immunoassay ([..]); capture 15F11 on microparticles, acridinium-labeled 15C4; BNP at 86.6 pM.
Assay [12] shares this target. The experiment in a line: two-step sandwich chemiluminescent immunoassay ([..]); capture 8.1 on microparticles, acridinium-labeled 15C4; BNP at 86.6 pM.
The target in assay [13] is human pro B-type natriuretic peptide (human). The assay is described as follows: two-step sandwich chemiluminescent immunoassay ([..]); capture 8.1 on microparticles, acridinium-labeled 15C4; proBNP at 86.6 pM.
The target of assay [14] is human N-terminal-pro B-type natriuretic peptide (human). The assay is described as follows: two-step sandwich chemiluminescent immunoassay ([..]); capture 15F11 on microparticles, acridinium-labeled 15C4; NT-proBNP at 288.7 pM.
The target of assay [15] is human B-type natriuretic peptide (human). The experiment in a line: two-step sandwich chemiluminescent immunoassay ([..]); capture 8.1 on microparticles, acridinium-labeled 15C4; BNP at 0 pM (blank).
Assay [16] deals with human pro B-type natriuretic peptide (human). The assay is described as follows: two-step sandwich chemiluminescent immunoassay ([..]); capture 8.1 on microparticles, acridinium-labeled 15C4; proBNP at 577.4 pM.
In assay [17] the target is human B-type natriuretic peptide (human). The experiment in a line: two-step sandwich chemiluminescent immunoassay ([..]); capture 8.1 on microparticles, acridinium-labeled 15C4; BNP at 288.7 pM.
Assay [18] has the same target. The assay is described as follows: two-step sandwich chemiluminescent immunoassay ([..]); capture 8.1 on microparticles, acridinium-labeled 15C4; BNP at 43.8 pM.
The target in assay [19] is human pro B-type natriuretic peptide (human). The assay is described as follows: two-step sandwich chemiluminescent immunoassay ([..]); capture 8.1 on microparticles, acridinium-labeled 15C4; proBNP at 43.8 pM.
The target of assay [20] is human B-type natriuretic peptide (human). The experiment in a line: two-step sandwich chemiluminescent immunoassay ([..]); capture 15F11 on microparticles, acridinium-labeled 15C4; BNP at 43.8 pM.

Sequence of human N-terminal-pro B-type natriuretic peptide (human) (chain, as listed by the source): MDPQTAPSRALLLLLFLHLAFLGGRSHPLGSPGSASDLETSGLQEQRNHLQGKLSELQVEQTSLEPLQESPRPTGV
Sequence of human pro B-type natriuretic peptide (human) (chain, as listed by the source): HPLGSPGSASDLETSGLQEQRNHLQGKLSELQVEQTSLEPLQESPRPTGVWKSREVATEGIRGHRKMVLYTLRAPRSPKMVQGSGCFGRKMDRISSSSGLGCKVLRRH
Sequence of human B-type natriuretic peptide (human) (peptide, as listed by the source): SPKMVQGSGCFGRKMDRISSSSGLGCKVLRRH

Turning to monoclonal antibody 15C4, the mean rlus in assay [1] stood at 22400 RLU; in assay [2] it was 62700 RLU; in assay [3] it was 1200 RLU; in assay [4] it was 701 RLU; in assay [5], 658000 RLU; in [6] it was 659 RLU. Besides, the mean rlus in assay [7] amounted to 43000 RLU; in assay [8], 1130 RLU; in [9] it was 1140 RLU; in assay [10], 1140 RLU; in assay [11], 1080 RLU; in assay [12], 713 RLU. The mean rlus in [13] was 12000 RLU; in assay [14], 317000 RLU; in assay [15], 745 RLU; in assay [16], 116000 RLU; in assay [17], 732 RLU; in assay [18] it was 567 RLU. For the same substance, the mean rlus came to 5480 RLU in [19] and 1040 RLU in assay [20].
